Experimental data from patent publication US20260242478A1 (published 2026).
Where no end group is shown, it is not given here.

B1: Phage-2799 (peptide)
peptide: ESKWCVPTWMCAEN
modifications: cysteine pairing not given here; also: fused to pIII, displayed on bacteriophage
B2: Phage-2803 (peptide)
peptide: VKHVCMPEWMCYWS
modifications: cysteine pairing not given here; also: fused to pIII, displayed on bacteriophage
B3: Phage-2820 (Peptide-180 library clone) (peptide)
peptide: FEKWCTPLWMCADS
modifications: cysteine pairing not given here; also: fused to pIII, displayed on bacteriophage
B4: Phage-2819 (Peptide-180 library clone) (peptide)
peptide: IDKWCKPVWMCADN
modifications: cysteine pairing not given here; also: fused to pIII, displayed on bacteriophage

Molecular target: T1, PSMA Fab (biotinylated (site not stated))
T1 construct: also called Anti-PSMA Fab; 006 PSMA Fab
Assay: clonal phage ELISA on biotinylated PSMA Fab captured on neutravidin plates, anti-M13 HRP detection;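 also: crude clonal phage supernatants tested, before phage were added, wells were pretreated with PSMA antigen in blocking buffer or with blocking buffer only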

Row | Binder | Phage binding ELISA signal, Anti-PSMA Fab
1 | TPKWCTPAWMCVVS [Phage-2802] | 0.575
2 | HFKWCIPPWMCLEI [Phage-2798] | 0.588
3 | DYKWCTPPWMCDSR [Phage-2800] | 0.58
4 | B1 | 0.583
5 | ERIWCTPKWMCETF [Phage-2797] | 0.589
6 | SDNWCKPEWMCVGH [Phage-2801] | 0.578

Molecular target: T2, PSMA Fab (006 PSMA Fab) (biotinylated for capture on neutravidin plates (site not stated))
T2 construct: also called Anti-PSMA Fab
Assay: clonal phage ELISA on biotinylated PSMA Fab captured on neutravidin plates, anti-M13-HRP detection;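 also: crude clonal phage supernatants added to wells preincubated with PSMA antigen or with blocking buffer only (no wash between), briefly incubated, then washed before detecting bound phage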

Row | Binder | Phage binding ELISA signal, Anti-PSMA Fab
7 | VPKWCTPSWMCEFT [Phage-2811] | 0.56
8 | IDKWCVPAWMCSPA [Phage-2815] | 0.538
9 | MMHWCTPPWMCEFS [Phage-2805] | 0.568
10 | SVHMCKPPWMCQSM [Phage-2818] | 0.509
11 | PMKWCTPPWMCSYS [Phage-2814] | 0.538
12 | EGKWCTPTWMCQGF [Phage-2804] | 0.57
13 | VGPWCIPDWMCDVV [Phage-2812] | 0.554
14 | B2 | 0.57
15 | MDIWCKPRWMCEEY [Phage-2810] | 0.562
16 | VTKLCIPEWMCVIQ [Phage-2809] | 0.562
17 | GATWCTPTWMCTGF [Phage-2806] | 0.566
18 | FSKLCTPPWMCSVS [Phage-2813] | 0.543
19 | GDKWCKPSWMCDFF [Phage-2816] | 0.526
20 | EAKWCTPPWMCSLV [Phage-2817] | 0.525
21 | WENWCIPQWMCGTA [Phage-2807] | 0.565
22 | MEKWCTPRWMCVGM [Phage-2808] | 0.565

Molecular target: T3, PSMA Fab (006 PSMA Fab)
T3 construct: In the phage ELISA the PSMA Fab was biotinylated and captured on neutravidin coated plates; also called Anti-PSMA Fab; anti-PSMA Fab
Assay: phage ELISA; PSMA Fab on plate pre-incubated with PSMA antigen as competitor, anti-M13 HRP detection;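 also: crude clonal phage supernatants added to Fab-coated wells still holding PSMA antigen in blocking buffer, with bound phage as read-out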
Experimental: (§1) Clonal phage were harvested as crude supernatants and screened via standard ELISAs. […] Prior to the addition of clonal phage. wells were incubated with blocking buffer and PSMA antigen or blocking buffer alone. Without washing or aspirating, clonal phage supernatants were then added to the wells and incubated for a short time. Wells were then washed followed by detection of bound phage using a horse radish conjugated anti-M13 antibody.

Row | Binder | phage binding ELISA signal (Anti-PSMA Fab, PSMA antigen present)
23 | SSNWCTPAWMCVTS [Phage-2826 (Peptide-180 library clone)] | 0.0627
24 | DIRWCTPPWMCMHL [Phage-2822 (Peptide-180 library clone)] | 0.258
25 | NTNWCTPPWMCEGL [Phage-2834 (Peptide-180 library clone)] | 0.0664
26 | GVNWCVPPWMCLND [Phage-2823 (Peptide-180 library clone)] | 0.0879
27 | LEKWCIPSQLCQLD [Phage-2827 (Peptide-180 library clone)] | 0.0743
28 | B3 | 0.0612
29 | WDNWCTPSWMCSTA [Phage-2821 (Peptide-180 library clone)] | 0.0814
30 | DVKWCTPRWMCELS [Phage-2829 (Peptide-180 library clone)] | 0.0913
31 | EFKWCSPAQLCVNG [Phage-2832 (Peptide-180 library clone)] | 0.0526
32 | QAIWCIPDWMCVQN [Phage-2830 (Peptide-180 library clone)] | 0.137
33 | B4 | 0.0659
34 | EVKWCTPYWMCIDT [Phage-2833 (Peptide-180 library clone)] | 0.072
35 | GLPWCVPQWMCVVS [Phage-2824 (Peptide-180 library clone)] | 0.0721
36 | GEKWCSPAWMCEWL [Phage-2828 (Peptide-180 library clone)] | 0.0817
37 | AFPSCIPEWMCSGM [Phage-2831 (Peptide-180 library clone)] | 0.149
38 | YHKWCTPEWMCVFD [Phage-2825 (Peptide-180 library clone)] | 0.0666

Molecular target: T3, PSMA Fab (006 PSMA Fab)
Assay: phage ELISA; biotinylated PSMA Fab on neutravidin plate, clonal phage supernatant, anti-M13 HRP detection;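 also: wells preincubated with PSMA antigen in blocking buffer or with blocking buffer only before clonal phage were added for a short incubation, then bound phage detected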
Experimental: as §1

Row | Binder | Phage binding ELISA signal, Anti-PSMA Fab
39 | SSNWCTPAWMCVTS [Phage-2826 (Peptide-180 library clone)] | 0.47
40 | DIRWCTPPWMCMHL [Phage-2822 (Peptide-180 library clone)] | 0.486
41 | NTNWCTPPWMCEGL [Phage-2834 (Peptide-180 library clone)] | 0.442
42 | GVNWCVPPWMCLND [Phage-2823 (Peptide-180 library clone)] | 0.484
43 | LEKWCIPSQLCQLD [Phage-2827 (Peptide-180 library clone)] | 0.464
44 | B3 | 0.5
45 | WDNWCTPSWMCSTA [Phage-2821 (Peptide-180 library clone)] | 0.488
46 | DVKWCTPRWMCELS [Phage-2829 (Peptide-180 library clone)] | 0.457
47 | EFKWCSPAQLCVNG [Phage-2832 (Peptide-180 library clone)] | 0.447
48 | QAIWCIPDWMCVQN [Phage-2830 (Peptide-180 library clone)] | 0.454
49 | B4 | 0.5
50 | EVKWCTPYWMCIDT [Phage-2833 (Peptide-180 library clone)] | 0.443
51 | GLPWCVPQWMCVVS [Phage-2824 (Peptide-180 library clone)] | 0.482
52 | GEKWCSPAWMCEWL [Phage-2828 (Peptide-180 library clone)] | 0.459
53 | AFPSCIPEWMCSGM [Phage-2831 (Peptide-180 library clone)] | 0.45
54 | YHKWCTPEWMCVFD [Phage-2825 (Peptide-180 library clone)] | 0.474

Molecular target: T1, PSMA Fab
Assay: clonal phage ELISA on captured biotinylated PSMA Fab; competitor: PSMA antigen at saturating concentration
Experimental: as §1

Row | Binder | phage binding ELISA signal (Anti-PSMA Fab, wells pre-incubated with PSMA antigen)
55 | TPKWCTPAWMCVVS [Phage-2802] | 0.077
56 | HFKWCIPPWMCLEI [Phage-2798] | 0.298
57 | DYKWCTPPWMCDSR [Phage-2800] | 0.0697
58 | B1 | 0.0578
59 | ERIWCTPKWMCETF [Phage-2797] | 0.0657
60 | SDNWCKPEWMCVGH [Phage-2801] | 0.0873

Molecular target: T2, PSMA Fab (006 PSMA Fab)
Assay: clonal phage ELISA on captured PSMA Fab pre-incubated with PSMA antigen as competitor, anti-M13-HRP detection;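 also: wells blocked with buffer plus PSMA antigen before phage addition, with blocking buffer alone as the no-competitor control, bound phage detected after washing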
Experimental: as §1

Row | Binder | Phage binding ELISA signal, Anti-PSMA Fab in presence of PSMA
61 | VPKWCTPSWMCEFT [Phage-2811] | 0.0648
62 | IDKWCVPAWMCSPA [Phage-2815] | 0.06
63 | MMHWCTPPWMCEFS [Phage-2805] | 0.0626
64 | SVHMCKPPWMCQSM [Phage-2818] | 0.077
65 | PMKWCTPPWMCSYS [Phage-2814] | 0.063
66 | EGKWCTPTWMCQGF [Phage-2804] | 0.0945
67 | VGPWCIPDWMCDVV [Phage-2812] | 0.0755
68 | B2 | 0.0724
69 | MDIWCKPRWMCEEY [Phage-2810] | 0.0676
70 | VTKLCIPEWMCVIQ [Phage-2809] | 0.0595
71 | GATWCTPTWMCTGF [Phage-2806] | 0.117
72 | FSKLCTPPWMCSVS [Phage-2813] | 0.276
73 | GDKWCKPSWMCDFF [Phage-2816] | 0.072
74 | EAKWCTPPWMCSLV [Phage-2817] | 0.0546
75 | WENWCIPQWMCGTA [Phage-2807] | 0.141
76 | MEKWCTPRWMCVGM [Phage-2808] | 0.0734
